{"source": "paper PMC5785358", "about": "“The STENOFOLIA gene from Medicago alters leaf width, flowering time and chlorophyll content in transgenic wheat”", "binders": {"B1": {"name": "Ta6SFT-A1 probe (dsDNA)", "DNA 1": "ACTCCACGCACTAACTTTTTTAATAAGGTCTTCTGTGTGGGGAAAAAGACGGGATCTCTCTCTCTAGACATAATCAAAAGGGATTGTTTAACTCACACCAAATTTGGAGGAAAACTTTGACAGCAAAACAGGGGAAAACAGAGTTTCCATAGCGGGTTGGGGGTTCACTTCACAGTGGCGTAGATTGGA", "DNA 2": "TCCAATCTACGCCACTGTGAAGTGAACCCCCAACCCGCTATGGAAACTCTGTTTTCCCCTGTTTTGCTGTCAAAGTTTTCCTCCAAATTTGGTGTGAGTTAAACAATCCCTTTTGATTATGTCTAGAGAGAGAGATCCCGTCTTTTTCCCCACACAGAAGACCTTATTAAAAAAGTTAGTGCGTGGAGT"}, "B2": {"name": "TaACC-D1 probe (dsDNA)", "DNA 1": "TTCTTCCAGGTGAATACACCACAGTAGTAATATGGCATAATCTGACAAGATGAATCTCCTCATCGACCCATCCTTAATGTTGATTTGCTCTCTCTCTGTTTTCGGCGGTGCGTGCAGGTTCTGGACCACGGCATCTC", "DNA 2": "GAGATGCCGTGGTCCAGAACCTGCACGCACCGCCGAAAACAGAGAGAGAGCAAATCAACATTAAGGATGGGTCGATGAGGAGATTCATCTTGTCAGATTATGCCATATTACTACTGTGGTGTATTCACCTGGAAGAA"}, "B3": {"name": "TaACC-B1 probe (dsDNA)", "DNA 1": "TTCTTCCAGGTGAATACACAGCACTAACATGGCATAATCTGACAGGATAAATCTCCTTATCGATCTATCCTTAATGCTCATCTGCTCTCTCTCTCTCTCTCTCTCTCTTTTTCGGTGGTGCGTGCAGGTCCTGGACCACGGCATCTCGACGGAGCTGATGGACAAGGTGGAGAAGATGACCAAGG", "DNA 2": "CCTTGGTCATCTTCTCCACCTTGTCCATCAGCTCCGTCGAGATGCCGTGGTCCAGGACCTGCACGCACCACCGAAAAAGAGAGAGAGAGAGAGAGAGAGAGCAGATGAGCATTAAGGATAGATCGATAAGGAGATTTATCCTGTCAGATTATGCCATGTTAGTGCTGTGTATTCACCTGGAAGAA"}, "B4": {"name": "TaBEL-A1 probe (dsDNA)", "DNA 1": "GCTTGCGTGTGTGTGCATCAGAGAGAAAGAGAGAGAGAGAGAGGCCTGCCGCCCAAGATCTCTCTTGATCAGTGCCGAGATCATCAATCAGGGGGGCCTGCCATCCAAGTGGGCATCTCCATTTTTCTTCCTCCTCGAGCTGGTTTCCGAGCCTGATAAAACCACCCTCCCCGGCCTCGCTCAACTGCTCCCCAGC", "DNA 2": "GCTGGGGAGCAGTTGAGCGAGGCCGGGGAGGGTGGTTTTATCAGGCTCGGAAACCAGCTCGAGGAGGAAGAAAAATGGAGATGCCCACTTGGATGGCAGGCCCCCCTGATTGATGATCTCGGCACTGATCAAGAGAGATCTTGGGCGGCAGGCCTCTCTCTCTCTCTCTTTCTCTCTGATGCACACACACGCAAGC"}, "B5": {"name": "TaKN1 probe (TaKN-B1 sequence printed) (dsDNA)", "DNA 1": "TACTGCAGTATTGCCCTCCAGCTTTTTCCTCTCGCTCCCCATCTCCTTCCCTCTAATGATAGCTTAGAGAGAGAAGGAGAAAAGGCTATTCCGCTCAAGGCAAGGCAGGCAGGTACCCTTCTCCTTCCCCAAACCCAAACCCTTTTTCTCTTTCTCTCCGCCCAAGAACTTCACCTCAAGCTCAATCCGTCT", "DNA 2": "AGACGGATTGAGCTTGAGGTGAAGTTCTTGGGCGGAGAGAAAGAGAAAAAGGGTTTGGGTTTGGGGAAGGAGAAGGGTACCTGCCTGCCTTGCCTTGAGCGGAATAGCCTTTTCTCCTTCTCTCTCTAAGCTATCATTAGAGGGAAGGAGATGGGGAGCGAGAGGAAAAAGCTGGAGGGCAATACTGCAGTA"}}, "assay_in_all_cases": "EMSA; 10 mM Tris pH 7.5, 50 mM KCl, 1 mM DTT, 2.5% glycerol, 0.05% NP-40, 5 mM MgCl2, 0.5 mM EDTA, 5 ng/uL poly(dI.dC), 1 ug protein, 100 fmol probe, room temperature 40 min", "details_in_all_cases": "protein: recombinant; tags: MBP (N-terminal, pMAL-c2X); label: 3' biotin; blunt", "key": {"[1]": {"molecular_target": "T1, MBP-STF full length (STENOFOLIA) (Medicago truncatula, UniProt G0ZGT3 1-358)", "T1 sequence": "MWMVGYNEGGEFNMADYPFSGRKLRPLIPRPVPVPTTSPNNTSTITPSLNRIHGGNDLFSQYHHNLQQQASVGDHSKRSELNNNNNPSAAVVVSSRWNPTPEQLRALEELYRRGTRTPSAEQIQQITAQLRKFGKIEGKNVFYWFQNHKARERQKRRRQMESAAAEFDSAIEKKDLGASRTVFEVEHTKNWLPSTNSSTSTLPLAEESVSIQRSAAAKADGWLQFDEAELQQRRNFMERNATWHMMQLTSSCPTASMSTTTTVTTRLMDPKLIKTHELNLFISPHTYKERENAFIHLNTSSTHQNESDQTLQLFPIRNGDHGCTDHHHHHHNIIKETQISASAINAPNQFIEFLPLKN"}, "MBP-STF S2": {"molecular_target": "T2, MBP-STF S2 (Medicago truncatula, UniProt G0ZGT3 263-358)", "T2 sequence": "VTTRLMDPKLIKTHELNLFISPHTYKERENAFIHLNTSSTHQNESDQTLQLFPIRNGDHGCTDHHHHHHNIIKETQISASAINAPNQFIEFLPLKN"}, "MBP-STF S1": {"molecular_target": "T3, MBP-STF S1 (Medicago truncatula, UniProt G0ZGT3 1-262)", "T3 sequence": "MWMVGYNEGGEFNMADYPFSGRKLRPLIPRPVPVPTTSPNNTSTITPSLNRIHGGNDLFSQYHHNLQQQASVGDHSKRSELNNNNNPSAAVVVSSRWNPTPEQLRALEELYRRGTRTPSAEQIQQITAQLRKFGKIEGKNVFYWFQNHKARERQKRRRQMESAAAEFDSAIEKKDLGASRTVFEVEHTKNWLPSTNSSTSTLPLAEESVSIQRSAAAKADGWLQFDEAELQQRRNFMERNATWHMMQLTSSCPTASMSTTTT"}, "MBP-STF S3": {"molecular_target": "T4, MBP-STF S3 (Medicago truncatula, UniProt G0ZGT3 1-90)", "T4 sequence": "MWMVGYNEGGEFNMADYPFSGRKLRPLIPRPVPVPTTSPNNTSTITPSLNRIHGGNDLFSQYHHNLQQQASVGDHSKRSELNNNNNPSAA"}}}
{"binder": "B1", "values": [{"measurement": "binding result", "setting": "[1]", "result": "binds"}, {"measurement": "binding result", "setting": "MBP-STF S2", "result": "no binding"}, {"measurement": "binding result", "setting": "MBP-STF S1", "result": "binds"}, {"measurement": "binding result", "setting": "MBP-STF S3", "result": "no binding"}]}
{"binder": "B2", "values": [{"measurement": "binding result", "setting": "[1]", "result": "binds"}, {"measurement": "binding result", "setting": "MBP-STF S3", "result": "no binding"}]}
{"binder": "B3", "values": [{"measurement": "binding result", "setting": "[1]", "result": "binds"}]}
{"binder": "B4", "values": [{"measurement": "binding result", "setting": "[1]", "result": "binds"}]}
{"binder": "B5", "values": [{"measurement": "binding result", "setting": "[1]", "result": "binds"}]}
